Common to all, as to settings: Cricetulus griseus
The subject of one data set is NC(=O)NC(CCS)C(=O)O. Put plainly: Kinetic constant for the inactivation against Dihydroorotase (DHO) at a concentration of 3 uM.
For the next data set, the system named is NC(=O)NC(CC(=O)O)C(=O)O. Description: Kinetic constant for the inactivation of Dihydroorotase (DHO) at pH 6.0.
Data set [1] addresses Multifunctional protein CAD (Homo sapiens) (UniProt P27708). Description: Inhibitory activity against Dihydroorotase (DHO) using CAD protein at concentrations >=6 mM; no inhibition was observed.
For data set [2] the target is unchanged. Put plainly: Inhibitory activity against Dihydroorotase (DHO); no reproducible apparent Ki data.

Three compounds from ChEMBL document CHEMBL1124703, “Analogues of carbamyl aspartate as inhibitors of dihydroorotase: preparation of boronic acid transition-state analogues and a zinc chelator carbamylhomocysteine” (J Med Chem, 1990) can be followed below.

For orientation: kinact means the maximal first-order rate at which the target is inactivated. What is called Km is the concentration of substrate that gives half-maximal velocity.

Sequence of Multifunctional protein CAD (Homo sapiens) (P27708 whole entry): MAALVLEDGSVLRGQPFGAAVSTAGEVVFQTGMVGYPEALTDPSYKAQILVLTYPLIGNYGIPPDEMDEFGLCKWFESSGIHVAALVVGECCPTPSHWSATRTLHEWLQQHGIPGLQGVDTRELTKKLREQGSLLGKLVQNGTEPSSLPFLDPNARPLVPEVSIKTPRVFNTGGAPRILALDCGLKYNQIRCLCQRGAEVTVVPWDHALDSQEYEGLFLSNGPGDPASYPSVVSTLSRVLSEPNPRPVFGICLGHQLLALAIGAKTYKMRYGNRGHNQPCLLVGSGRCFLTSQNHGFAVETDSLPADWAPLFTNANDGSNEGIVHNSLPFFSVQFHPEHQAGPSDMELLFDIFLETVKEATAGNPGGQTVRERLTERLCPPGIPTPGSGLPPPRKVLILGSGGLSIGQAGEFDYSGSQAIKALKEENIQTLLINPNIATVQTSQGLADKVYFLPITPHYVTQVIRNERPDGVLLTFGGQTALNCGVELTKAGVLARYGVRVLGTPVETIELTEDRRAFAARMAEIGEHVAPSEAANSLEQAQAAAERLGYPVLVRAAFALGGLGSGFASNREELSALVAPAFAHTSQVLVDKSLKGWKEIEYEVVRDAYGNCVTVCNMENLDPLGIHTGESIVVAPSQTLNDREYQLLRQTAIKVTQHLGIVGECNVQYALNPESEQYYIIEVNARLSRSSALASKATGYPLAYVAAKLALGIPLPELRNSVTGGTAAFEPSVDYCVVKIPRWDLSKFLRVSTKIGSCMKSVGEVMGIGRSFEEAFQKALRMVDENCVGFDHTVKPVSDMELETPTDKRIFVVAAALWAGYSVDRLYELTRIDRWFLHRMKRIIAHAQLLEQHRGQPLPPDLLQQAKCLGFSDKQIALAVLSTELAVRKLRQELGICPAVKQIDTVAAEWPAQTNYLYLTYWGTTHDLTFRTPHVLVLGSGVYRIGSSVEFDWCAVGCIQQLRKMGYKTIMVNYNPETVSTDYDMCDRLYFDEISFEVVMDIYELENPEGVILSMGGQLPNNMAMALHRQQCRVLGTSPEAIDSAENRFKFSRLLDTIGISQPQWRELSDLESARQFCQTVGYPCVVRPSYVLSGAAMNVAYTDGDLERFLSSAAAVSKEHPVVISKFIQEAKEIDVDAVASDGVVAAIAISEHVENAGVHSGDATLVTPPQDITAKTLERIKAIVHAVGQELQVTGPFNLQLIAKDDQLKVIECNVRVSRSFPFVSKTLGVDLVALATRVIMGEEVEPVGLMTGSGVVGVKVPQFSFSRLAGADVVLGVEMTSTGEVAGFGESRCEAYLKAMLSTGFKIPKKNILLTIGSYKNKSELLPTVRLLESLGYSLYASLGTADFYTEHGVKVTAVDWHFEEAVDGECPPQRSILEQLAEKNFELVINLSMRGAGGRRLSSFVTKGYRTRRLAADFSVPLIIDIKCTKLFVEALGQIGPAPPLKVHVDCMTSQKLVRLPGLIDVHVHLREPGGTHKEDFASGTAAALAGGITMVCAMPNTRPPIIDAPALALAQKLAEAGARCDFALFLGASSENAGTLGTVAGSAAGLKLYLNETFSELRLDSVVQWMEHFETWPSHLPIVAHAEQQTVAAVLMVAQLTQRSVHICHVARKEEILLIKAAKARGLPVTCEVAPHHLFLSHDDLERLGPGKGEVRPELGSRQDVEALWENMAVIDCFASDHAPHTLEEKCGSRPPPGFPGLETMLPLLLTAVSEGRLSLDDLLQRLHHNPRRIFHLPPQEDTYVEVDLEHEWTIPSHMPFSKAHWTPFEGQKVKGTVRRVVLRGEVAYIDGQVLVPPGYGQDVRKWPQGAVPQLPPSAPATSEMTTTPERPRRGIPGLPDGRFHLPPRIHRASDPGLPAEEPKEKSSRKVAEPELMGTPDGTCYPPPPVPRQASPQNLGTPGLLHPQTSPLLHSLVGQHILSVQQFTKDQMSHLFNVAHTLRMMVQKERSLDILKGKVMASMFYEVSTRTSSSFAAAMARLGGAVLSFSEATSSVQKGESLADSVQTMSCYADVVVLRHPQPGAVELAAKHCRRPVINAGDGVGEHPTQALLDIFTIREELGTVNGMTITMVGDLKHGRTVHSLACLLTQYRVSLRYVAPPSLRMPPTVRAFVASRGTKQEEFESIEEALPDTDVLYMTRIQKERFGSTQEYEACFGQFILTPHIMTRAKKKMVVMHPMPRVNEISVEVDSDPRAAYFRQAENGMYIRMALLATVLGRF

In the case of “Multifunctional protein CAD (Homo sapiens), P27708”, the maximal inactivation rate constant (kinact) with NC(=O)NC(CCS)C(=O)O amounted to 460000 min⁻¹. Further, the Km in the data set with NC(=O)NC(CC(=O)O)C(=O)O stood at 50 µM.

Turning to `NC(=O)NC(CB(O)O)C(=O)O` (centres undefined), in data set [1], the inhibition entry was “No inhibition”.

`COC(=O)C(CB(O)O)NC(N)=O` (centres undefined): in data set [2], the inhibition result was “no reproducible apparent Ki data”.
